According to patent US20170166621A1 (Novartis, published 2017):

B1: GLP-1(7-35; A8S)-GSGGGGSGGG-FGF21(33-209; Q56E-D74H-Q82E-R105K-K150R-R154C-40 kDa branched PEG-R159Q-S195A) (ligand)
chain: HSEGTFTSDVSSYLEGQAAKEFIAWLVKGGSGGGGSGGGDSSPLLQFGGQVRQRYLYTDDAQETEAHLEIREDGTVGGAAHQSPESLLELKALKPGVIQILGVKTSRFLCQKPDGALYGSLHFDPEACSFRELLLEDGYNVYQSEAHGLPLHLPGNRSPHCDPAPQGPARFLPLPGLPPALPEPPGILAPQPPDVGSSDPLAMVGPSQGRSPSYAS
modifications: 40 kDa branched PEG on Cys at R154C (FGF21 numbering)
B2: GLP-1(7-35; A8S)-SGGGGSGGG-FGF21(33-194; R154C-40 kDa branched PEG) (ligand)
chain: HSEGTFTSDVSSYLEGQAAKEFIAWLVKGGSGGGGSGGGDSSPLLQFGGQVRQRYLYTDDAQQTEAHLEIREDGTVGGAADQSPESLLQLKALKPGVIQILGVKTSRFLCQRPDGALYGSLHFDPEACSFRELLLEDGYNVYQSEAHGLPLHLPGNKSPHCDPAPRGPARFLPLPGLPPALPEPPGILAPQPPDVGSSDPLS
modifications: 40 kDa branched PEG on Cys at R154C (FGF21 numbering)

How the values were obtained:
GLP-1 receptor = GLP-1 receptor (UniProt P43220 24-463, limits assumed); assay: cell-based or functional assay
FGF21 receptor = assay: cell-based or functional assay

Binder | cAMP EC50 (fold-Ex-4); GLP-1R only cells (GLP-1 receptor) [fold] | cAMP EC50 (fold-Ex-4); GLP-1R/FGFR1c/beta-klotho cells (GLP-1 receptor) [fold] | cAMP EC50 (nM); GLP-1R only cells (GLP-1 receptor) [nM] | cAMP EC50 (nM); GLP-1R/FGFR1c/beta-klotho cells (GLP-1 receptor) [nM] | potency in the FGF21 receptor assay (FGF21 receptor) [fold less potent] | cAMP EC50 (fold-Ex-4); GLP-1R only cells; V253 + V76 co-treatment (GLP-1 receptor) [fold] | cAMP EC50 (fold-Ex-4); GLP-1R/FGFR1c/beta-klotho cells; V253 + V76 co-treatment (GLP-1 receptor) [fold] | cAMP EC50 (nM); GLP-1R only cells; V253 + V76 co-treatment (GLP-1 receptor) [nM] | cAMP EC50 (nM); GLP-1R/FGFR1c/beta-klotho cells; V253 + V76 co-treatment (GLP-1 receptor) [nM]
B1 | 6 | 0.4 | 64 | 2.4 | – | – | – | – | –
B2 | 3.2 | 4.1 | 34 | 24 | ≥ 1000 | 3.5 | 2.1 | 38 | 12
